According to article PMC8184781 (2021):
Ends that are not written are not given here.

Molecular target: T1, RDM15 Tudor domain (residues 598-662), wild type (Arabidopsis thaliana)
T1 chain: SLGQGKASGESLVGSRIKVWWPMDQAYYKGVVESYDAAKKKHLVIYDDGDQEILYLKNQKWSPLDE
Experiment: ITC

Kd: 1470 nM
Binder: ARTK(Me)QTARKSTGGKA [H3(1-15) K4me1 peptide]
